Data from article PMC11742385, “Selection and Characterization of a DNA Aptamer Recognizing High Mobility Group Box 1 Protein (HMGB1) and Enhancing Its Pro-inflammatory Activity”.

How the values were obtained:
rhHMGB1 A box = target: T1, rhHMGB1 A box (Homo sapiens, UniProt P09429 9-79); test: microplate aptamer binding assay; dot blot; 1 mM Mg2+, 1 mM Ca2+; 5 nM aptamer (microplate); SHMCK: 20 mM Hepes, 120 mM NaCl, 5 mM KCl, 1 mM MgCl2, 1 mM CaCl2, pH 7.4, 37 C, 1 h; protein coated 2 pmol/well, 3% BSA block, PBST washes; conditions: protein: recombinant; tags: His tag implied (pET28a, Ni-NTA); predicted hairpin (9-50) and stem-loops (52-69) linked by a T
T1 sequence: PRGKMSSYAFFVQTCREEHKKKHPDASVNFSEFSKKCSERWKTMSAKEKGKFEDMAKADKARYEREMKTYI

rhHMGB1 = rhHMGB1 (Homo sapiens, UniProt P09429 1-215); test: microplate aptamer binding assay (streptavidin-HRP); 1 mM Mg2+, 1 mM Ca2+; SHMCK: 20 mM Hepes, 120 mM NaCl, 5 mM KCl, 1 mM MgCl2, 1 mM CaCl2, pH 7.4, 37 C, 1 h; protein coated 2 pmol/well, 3% BSA block, PBST washes; conditions: protein: recombinant; tags: His tag implied (pET28a, Ni-NTA); predicted hairpin (9-50) and stem-loops (52-69) linked by a T
rhHMGB2 = target: T2, rhHMGB2 (UniProt P26583 1-209); test: microplate aptamer binding assay; 1 mM Mg2+, 1 mM Ca2+; 5 nM aptamer; SHMCK: 20 mM Hepes, 120 mM NaCl, 5 mM KCl, 1 mM MgCl2, 1 mM CaCl2, pH 7.4, 37 C, 1 h; protein coated 2 pmol/well, 3% BSA block, PBST washes; conditions: protein: commercial; predicted hairpin (9-50) and stem-loops (52-69) linked by a T
T2 sequence: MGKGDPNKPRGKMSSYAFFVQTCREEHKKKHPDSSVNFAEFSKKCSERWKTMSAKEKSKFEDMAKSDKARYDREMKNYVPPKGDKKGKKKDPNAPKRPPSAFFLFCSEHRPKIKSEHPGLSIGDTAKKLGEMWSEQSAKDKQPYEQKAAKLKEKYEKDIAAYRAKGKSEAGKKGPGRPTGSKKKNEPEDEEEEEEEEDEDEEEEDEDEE

Sequence of rhHMGB1 (P09429 whole entry): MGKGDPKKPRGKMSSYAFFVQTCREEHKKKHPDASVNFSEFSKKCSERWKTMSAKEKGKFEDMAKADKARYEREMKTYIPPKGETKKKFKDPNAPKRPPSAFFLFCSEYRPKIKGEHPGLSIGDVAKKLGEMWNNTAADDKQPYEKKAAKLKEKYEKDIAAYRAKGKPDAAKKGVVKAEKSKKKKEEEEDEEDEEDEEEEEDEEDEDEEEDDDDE

B1: H-ap25 (structured_DNA)
DNA: GGACAAGAATCACCGCTCTGGGTTTGGCGTCGGGCCTGGCGAAAGGTGGTTGTGCGGAGAGAGCGTACAGGAGGCATACAG
B1 was tested, and the binding result (rhHMGB1 A box) was “no binding”, the Kd (rhHMGB1) was 8.2 ± 0.53 nM and the binding result (rhHMGB2) was “no binding”.
